B1: AAV9-X1.1 capsid (complex, adeno-associated virus 9, UniProt Q6JC40 1-736, looked up)
chain: MAADGYLPDWLEDNLSEGIREWWALKPGAPQPKANQQHQDNARGLVLPGYKYLGPGNGLDKGEPVNAADAAALEHDKAYDQQLKAGDNPYLKYNHADAEFQERLKEDTSFGGNLGRAVFQAKKRLLEPLGLVEEAAKTAPGKKRPVEQSPQEPDSSAGIGKSGAQPAKKRLNFGQTGDTESVPDPQPIGEPPAAPSGVGSLTMASGGGAPVADNNEGADGVGSSSGNWHCDSQWLGDRVITTSTRTWALPTYNNHLYKQISNSTSGGSSNDNAYFGYSTPWGYFDFNRFHCHFSPRDWQRLINNNWGFRPKRLNFKLFNIQVKEVTDNNGVKTIANNLTSTVQVFTDSDYQLPYVLGSAHEGCLPPFPADVFMIPQYGYLTLNDGSQAVGRSSFYCLEYFPSQMLRTGNNFQFSYEFENVPFHSSYAHSQSLDRLMNPLIDQYLYYLSKTIDGAATKNQTLKFSVAGPSNMAVQGRNYIPGPSYRQQRVSTTVTQNNNSEFAWPGASSWALNGRNSLMNPGPAMASHKEGEDRFFPLSGSLIFGKQGTGRDNVDADKVMITNEEEIKTTNPVATESYGQVATNHQSAQGNNTRSVAQAQTGWVQNQGILPGMVWQDRDVYLQGPIWAKIPHTDGNFHPSPLMGGFGMKHPPPQILIKNTPVPADPPTAFNKDKLNSFITQYSTGQVSVEIEWELQKENSKRWNPEIQYTSNYYKSNNVEFAVNTEGVYSEPRPIGTRYLTRNL
notes: AAV9 capsid protein VP1 with changes in VR-IV and VR-VIII; numbers count on VP1; also called AAV-X1.1; source: HEK293 cells, triple transfected, purified (iodixanol gradient); copies: 60
B2: AAV.CAP-Mac capsid (complex, adeno-associated virus 9, UniProt Q6JC40 1-736, looked up)
chain: MAADGYLPDWLEDNLSEGIREWWALKPGAPQPKANQQHQDNARGLVLPGYKYLGPGNGLDKGEPVNAADAAALEHDKAYDQQLKAGDNPYLKYNHADAEFQERLKEDTSFGGNLGRAVFQAKKRLLEPLGLVEEAAKTAPGKKRPVEQSPQEPDSSAGIGKSGAQPAKKRLNFGQTGDTESVPDPQPIGEPPAAPSGVGSLTMASGGGAPVADNNEGADGVGSSSGNWHCDSQWLGDRVITTSTRTWALPTYNNHLYKQISNSTSGGSSNDNAYFGYSTPWGYFDFNRFHCHFSPRDWQRLINNNWGFRPKRLNFKLFNIQVKEVTDNNGVKTIANNLTSTVQVFTDSDYQLPYVLGSAHEGCLPPFPADVFMIPQYGYLTLNDGSQAVGRSSFYCLEYFPSQMLRTGNNFQFSYEFENVPFHSSYAHSQSLDRLMNPLIDQYLYYLSKTINGSGQNQQTLKFSVAGPSNMAVQGRNYIPGPSYRQQRVSTTVTQNNNSEFAWPGASSWALNGRNSLMNPGPAMASHKEGEDRFFPLSGSLIFGKQGTGRDNVDADKVMITNEEEIKTTNPVATESYGQVATNHQSAQLNTTKPIAQAQTGWVQNQGILPGMVWQDRDVYLQGPIWAKIPHTDGNFHPSPLMGGFGMKHPPPQILIKNTPVPADPPTAFNKDKLNSFITQYSTGQVSVEIEWELQKENSKRWNPEIQYTSNYYKSNNVEFAVNTEGVYSEPRPIGTRYLTRNL
notes: AAV9 capsid protein VP1 with an insertion in VR-VIII; numbers count on VP1; source: HEK293 cells, triple transfected, purified (iodixanol gradient); copies: 60
B3: mouse LRP6-E1E2 (N-half of the extracellular domain, AA 20-628) tagged with mouse IgG2a Fc (Fc fusion, UniProt O88572 20-628, looked up)
chain: APLLLYANRRDLRLVDATNGKENATIVVGGLEDAAAVDFVFGHGLIYWSDVSEEAIKRTEFNKSESVQNVVVSGLLSPDGLACDWLGEKLYWTDSETNRIEVSNLDGSLRKVLFWQELDQPRAIALDPSSGFMYWTDWGEVPKIERAGMDGSSRFVIINTEIYWPNGLTLDYQERKLYWADAKLNFIHKSNLDGTNRQAVVKGSLPHPFALTLFEDTLYWTDWNTHSILACNKYTGEGLREIHSNIFSPMDIHAFSQQRQPNATNPCGIDNGGCSHLCLMSPVKPFYQCACPTGVKLMENGKTCKDGATELLLLARRTDLRRISLDTPDFTDIVLQLEDIRHAIAIDYDPVEGYIYWTDDEVRAIRRSFIDGSGSQFVVTAQIAHPDGIAVDWVARNLYWTDTGTDRIEVTRLNGTMRKILISEDLEEPRAIVLDPMVGYMYWTDWGEIPKIERAALDGSDRVVLVNTSLGWPNGLALDYDEGTIYWGDAKTDKIEVMNTDGTGRRVLVEDKIPHIFGFTLLGDYVYWTDWQRRSIERVHKRSAEREVIIDQLPDLMGLKATSVHRVIGSNPCAEDNGGCSHLCLYRPQGLRCACPIGFELIGDMKTCI
notes: mouse LRP6, YWTD domains 1 and 2 (E1E2), AA 20-628; source: bought: Bio-Techne

How the values were obtained:
Conditions in all cases: both partners purified
[1] = molecular target: T1, mouse LRP6 (AA 20-1366) with a 6xHis tag (mouse, UniProt O88572 20-1366); assay: pull-down; prey AAVs mixed with His-tagged bait protein and Ni-NTA resin in DPBS with 20 mM imidazole, 1 h at 4 °C; eluate analysed by Western blot with anti-VP1/VP2/VP3 and anti-6xHis
T1 construct: mouse LRP6 extracellular domain, AA 20-1366; also called full length extracellular domain of mouse LRP6; source: bought: Bio-Techne
T1 sequence (looked up): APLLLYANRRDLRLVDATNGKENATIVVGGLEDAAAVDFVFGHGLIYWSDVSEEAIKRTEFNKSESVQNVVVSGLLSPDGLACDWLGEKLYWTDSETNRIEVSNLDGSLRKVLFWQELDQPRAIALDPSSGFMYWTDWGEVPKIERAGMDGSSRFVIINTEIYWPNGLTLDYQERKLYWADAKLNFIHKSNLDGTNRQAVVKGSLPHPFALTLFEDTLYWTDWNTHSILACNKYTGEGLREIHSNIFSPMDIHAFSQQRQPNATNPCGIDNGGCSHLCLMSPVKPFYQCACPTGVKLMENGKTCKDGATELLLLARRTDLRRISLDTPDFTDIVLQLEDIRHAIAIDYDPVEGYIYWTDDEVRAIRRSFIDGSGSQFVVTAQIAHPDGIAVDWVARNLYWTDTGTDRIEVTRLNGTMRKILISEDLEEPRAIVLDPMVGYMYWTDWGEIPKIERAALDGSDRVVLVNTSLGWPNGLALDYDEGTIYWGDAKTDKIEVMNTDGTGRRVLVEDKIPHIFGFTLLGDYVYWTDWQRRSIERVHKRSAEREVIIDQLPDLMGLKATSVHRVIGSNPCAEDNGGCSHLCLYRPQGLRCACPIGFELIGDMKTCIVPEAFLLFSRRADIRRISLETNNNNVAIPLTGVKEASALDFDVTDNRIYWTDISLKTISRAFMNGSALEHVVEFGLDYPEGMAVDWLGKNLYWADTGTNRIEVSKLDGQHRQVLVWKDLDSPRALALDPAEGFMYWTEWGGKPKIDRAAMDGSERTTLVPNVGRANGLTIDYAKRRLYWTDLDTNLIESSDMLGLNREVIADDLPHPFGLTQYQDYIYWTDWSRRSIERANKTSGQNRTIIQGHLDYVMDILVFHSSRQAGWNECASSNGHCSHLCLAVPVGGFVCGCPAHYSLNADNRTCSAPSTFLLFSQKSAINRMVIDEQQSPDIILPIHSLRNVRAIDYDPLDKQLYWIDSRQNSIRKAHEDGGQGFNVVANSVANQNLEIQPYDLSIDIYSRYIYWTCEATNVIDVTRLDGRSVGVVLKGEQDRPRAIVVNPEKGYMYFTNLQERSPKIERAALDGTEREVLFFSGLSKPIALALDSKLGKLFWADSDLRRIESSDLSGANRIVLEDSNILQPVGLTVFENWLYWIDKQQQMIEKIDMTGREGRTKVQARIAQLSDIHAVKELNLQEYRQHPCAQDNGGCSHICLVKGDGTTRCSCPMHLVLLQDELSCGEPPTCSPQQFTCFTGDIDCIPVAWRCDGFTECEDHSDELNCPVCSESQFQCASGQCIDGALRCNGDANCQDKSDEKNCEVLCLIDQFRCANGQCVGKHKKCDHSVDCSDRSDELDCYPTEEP

[2] = molecular target: T2, human LRP6 (AA 20-1368) tagged with human IgG1 Fc (human, UniProt O75581 20-1368); assay: SPR; Sierra SPR-32, protein A sensor chip; human LRP6-Fc captured at 1200-1500 RU in HBS-EP+ (Fig. 4b); AAV injected at 10 µL per min for 240 s, 600 s dissociation; AAV from 2.4 × 10^12 v.g. per mL in twofold dilutions; apparent affinity, avid format
T2 construct: human LRP6, AA 20-1368; the methods call it full-length, the results the extracellular domain; also called human LRP6-Fc; human LRP6 extracellular domain; source: bought: Bio-Techne
T2 sequence (looked up): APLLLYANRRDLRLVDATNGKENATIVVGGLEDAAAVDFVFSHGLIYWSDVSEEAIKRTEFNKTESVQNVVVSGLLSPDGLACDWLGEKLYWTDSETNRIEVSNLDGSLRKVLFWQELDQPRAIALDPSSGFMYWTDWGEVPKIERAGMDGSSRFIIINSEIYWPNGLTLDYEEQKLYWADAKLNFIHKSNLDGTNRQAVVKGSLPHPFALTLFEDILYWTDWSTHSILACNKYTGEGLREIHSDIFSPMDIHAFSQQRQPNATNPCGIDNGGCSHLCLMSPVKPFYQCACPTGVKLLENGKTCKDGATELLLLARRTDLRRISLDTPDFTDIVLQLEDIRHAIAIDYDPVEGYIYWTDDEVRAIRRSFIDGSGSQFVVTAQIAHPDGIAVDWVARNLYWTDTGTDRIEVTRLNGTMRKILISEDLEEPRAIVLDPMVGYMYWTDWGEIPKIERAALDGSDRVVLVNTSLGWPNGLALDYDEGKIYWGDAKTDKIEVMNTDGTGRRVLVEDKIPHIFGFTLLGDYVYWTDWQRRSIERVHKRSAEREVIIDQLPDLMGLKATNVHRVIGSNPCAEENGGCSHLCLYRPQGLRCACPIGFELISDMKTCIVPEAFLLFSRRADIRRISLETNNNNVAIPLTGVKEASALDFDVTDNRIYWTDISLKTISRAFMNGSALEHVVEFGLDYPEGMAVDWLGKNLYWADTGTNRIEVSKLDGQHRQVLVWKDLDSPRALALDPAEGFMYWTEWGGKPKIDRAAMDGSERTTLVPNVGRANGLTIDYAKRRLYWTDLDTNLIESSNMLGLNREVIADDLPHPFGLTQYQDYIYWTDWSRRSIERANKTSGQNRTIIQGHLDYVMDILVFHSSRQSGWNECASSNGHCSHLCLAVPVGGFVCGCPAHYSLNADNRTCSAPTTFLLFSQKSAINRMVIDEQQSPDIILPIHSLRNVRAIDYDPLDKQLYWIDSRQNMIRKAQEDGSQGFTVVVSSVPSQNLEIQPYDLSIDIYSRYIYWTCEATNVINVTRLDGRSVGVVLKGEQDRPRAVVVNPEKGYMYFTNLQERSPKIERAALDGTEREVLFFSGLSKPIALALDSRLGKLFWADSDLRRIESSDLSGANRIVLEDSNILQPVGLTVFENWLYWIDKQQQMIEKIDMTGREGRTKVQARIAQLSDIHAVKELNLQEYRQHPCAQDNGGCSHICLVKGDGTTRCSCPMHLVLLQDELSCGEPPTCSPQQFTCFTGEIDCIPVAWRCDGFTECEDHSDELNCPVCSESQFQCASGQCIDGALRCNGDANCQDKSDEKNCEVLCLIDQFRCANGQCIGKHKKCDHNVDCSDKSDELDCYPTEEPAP

AAV.CAP-Mac capsid = molecular target: B2; assay: SPR; Sierra SPR-32, protein A sensor chip; Fc-fusion protein captured at 600-800 RU in HBS-EP+; AAV injected at 10 µL per min for 240 s, 600 s dissociation; AAV from 2.4 × 10^12 v.g. per mL in twofold dilutions; avid format
AAV9-X1.1 capsid = molecular target: B1; assay: as above
AAV-BI30 capsid = molecular target: T3, AAV-BI30 capsid (adeno-associated virus 9, UniProt Q6JC40 1-736, VR VIII AA587-590 AQ - - - - - - - AQ to AQNNSTRGGAQ); assay: as above
T3 construct: AAV9 capsid protein VP1 with an insertion in VR-VIII; numbers count on VP1; source: HEK293 cells, triple transfected, purified (iodixanol gradient); copies: 60

## B1
[1]
  binding result: binds
[2]
  binding result: binds

## B2
[1]
  binding result: binds
[2]
  binding result: binds

## B3
AAV.CAP-Mac capsid
  binding result: binds
AAV9-X1.1 capsid
  binding result: binds
AAV-BI30 capsid
  binding result: binds
